Molecular target: tetanus toxoid (RIT, Smith Kline Beecham) (Clostridium tetani, UniProt P04958 2-1315)
Assay: ELISA by the procedure of Friguet et al.

Chain of tetanus toxoid (RIT, Smith Kline Beecham) (P04958 2-457 limits assumed, chain 1 of 2): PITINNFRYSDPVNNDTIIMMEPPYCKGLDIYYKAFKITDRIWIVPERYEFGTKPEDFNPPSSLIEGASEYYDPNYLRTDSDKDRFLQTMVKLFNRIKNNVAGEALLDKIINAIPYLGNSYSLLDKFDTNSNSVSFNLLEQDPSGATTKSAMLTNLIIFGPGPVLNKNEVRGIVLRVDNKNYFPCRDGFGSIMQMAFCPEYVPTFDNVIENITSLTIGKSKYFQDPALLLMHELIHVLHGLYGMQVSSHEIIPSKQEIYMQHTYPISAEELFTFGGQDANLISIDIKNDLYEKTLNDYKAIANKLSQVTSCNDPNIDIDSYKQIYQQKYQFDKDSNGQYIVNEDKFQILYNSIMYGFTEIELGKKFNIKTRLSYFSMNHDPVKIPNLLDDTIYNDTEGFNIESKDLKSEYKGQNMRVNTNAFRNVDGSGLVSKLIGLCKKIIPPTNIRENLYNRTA
Chain of tetanus toxoid (RIT, Smith Kline Beecham) (P04958 458-1315 limits assumed, chain 2 of 2): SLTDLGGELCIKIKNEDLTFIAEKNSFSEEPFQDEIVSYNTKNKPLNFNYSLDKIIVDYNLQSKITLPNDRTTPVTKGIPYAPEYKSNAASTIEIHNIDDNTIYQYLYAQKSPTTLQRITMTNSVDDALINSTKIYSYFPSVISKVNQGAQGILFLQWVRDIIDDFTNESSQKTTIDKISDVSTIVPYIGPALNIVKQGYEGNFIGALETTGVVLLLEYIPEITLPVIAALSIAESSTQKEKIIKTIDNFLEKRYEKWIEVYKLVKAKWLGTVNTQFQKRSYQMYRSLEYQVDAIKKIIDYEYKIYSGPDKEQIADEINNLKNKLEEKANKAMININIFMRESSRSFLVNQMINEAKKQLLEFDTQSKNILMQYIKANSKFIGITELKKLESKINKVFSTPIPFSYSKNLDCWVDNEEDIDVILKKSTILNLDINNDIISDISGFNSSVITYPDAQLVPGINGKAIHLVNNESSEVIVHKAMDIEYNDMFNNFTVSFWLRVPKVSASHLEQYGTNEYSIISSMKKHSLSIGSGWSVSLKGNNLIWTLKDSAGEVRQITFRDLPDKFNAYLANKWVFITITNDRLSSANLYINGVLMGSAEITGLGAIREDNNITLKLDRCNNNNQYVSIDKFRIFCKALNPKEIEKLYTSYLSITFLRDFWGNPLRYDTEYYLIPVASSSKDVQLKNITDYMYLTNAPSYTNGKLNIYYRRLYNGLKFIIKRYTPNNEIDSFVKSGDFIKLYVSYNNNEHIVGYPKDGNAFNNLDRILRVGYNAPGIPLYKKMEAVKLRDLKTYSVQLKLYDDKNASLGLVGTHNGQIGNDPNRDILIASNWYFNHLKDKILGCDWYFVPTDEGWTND

Binder	Ka [M⁻¹]
camel VHH αTT1 (anti-tetanus toxoid) (VHH) VHH: EVQLQASGGGSVQAGGSLRLSCAASGGQTFDSYAMAWFRQAPGKECELVSSIIGDDNRNYADSVKGRFTISRDNAKNTVYLQMDRLNPEDTAVYYCAQLGSARSAMYCAGQGTQVTVSS	6e+07
camel VHH αTT2 (anti-tetanus toxoid) (VHH) VHH: EVQLQASGGGSVQAGGSLRLSCTAANYAFDSKTVGWFRQVPGKEREGVAGISSGGSTTAYSDSVKGRYTVSLENAKNTVYLLIDNLQPEDTAIYYCAGVSGWRGRQWLLLAETYRFWGQGTQVTVSS	2e+07

— patent publication US7655759 (VRIJE UNIVERSITEIT BRUSSEL, dated 2010)
